US20190307907A1, “MOLECULAR SENSOR FOR NMR/MRI BASED ON ANALYTE-DEPENDENT SPECTRAL CHANGES OF TEMPORARILY ENCAPSULATED HYPERPOLARIZED 129XE” (KLINIKUM RECHTS DER ISAR DER TECHNISCHEN UNIVERSITÄT MÜNCHEN, priority 2016, published 2019)
Where no end group is shown, it is not given here. Cr‑A = cryptophane A cage on the Lys side chain; 5‑Fluo‑M = fluorescein maleimide

Tests used:
calmodulin [1] = target: T1, calmodulin (Homo sapiens, UniProt P0DP23); assay: Hyper-CEST spectra of cryptophane-conjugated peptides with calmodulin in absence and presence of calcium (FIG. 5); format: biochemical; conditions: peptide 1 μM, calmodulin 3 μM, MOPS; for Ca2+-dependent CEST unsuppression / signal change on calmodulin binding: calcium up to 100 μM; for CEST suppression (baseline, absence of calcium): no calcium, hyperpolarized 129Xe, 9.4 T
Description: Hyperpolarized Xenon was bubbled into buffered (MOPS) solutions containing different cryptophane bearing peptides indicated in the respective subfigures (1 μM) and calmodulin (3 μM) in the absence and presence of 100 μM calcium and CEST spectra were obtained on a 9.4 T Bruker AV 400 wide bore NMR spectrometer. (E) Effects of C-terminal portion of RS20 on the NMR-signal modulation. Replacement of the maleimide-Fluorescein by a maleimide capping group (NEM) partially unsuppresses the CEST effect.
However, the CEST suppression and Ca^2+-mediated unsuppression is weaker if the cryptophane cage is attached at the third lysine (@K3, FIG. 5B). […] (FIG. 5C).
(§1) The production, delivery and application of hyperpolarized Xe for NMR and MRI studies has been described previously including a full list of materials (Witte et al., 2012; Witte et al., 2014). Typically, hyperpolarized ^129Xe (20% polarization and more) is generated by spin exchange optical pumping using a 150 W continuous wave laser (795 nm, 0.5 nm bandwidth) in a custom-designed continuous flow setup at 4.5 bar absolute pressure using a gas mixture of 5% Xe (26.4% natural abundance of ^129Xe), 10% N2, and 85% He.
Experiments benefit from high field MRI scanners because of the increased spectral resolution for resolving the CEST response. As an example, a 9.4 T NMR spectrometer can be used for the NMR experiments. It requires gradient coils for MR imaging and a variable temperature unit for adjusting the sample temperature. A 10 mm inner-diameter double resonant probe (^129Xe (110 MHz) and ^iH (400 MHz)), can be used for excitation and detection.
The freshly hyperpolarized xenon gas mix is directly bubbled into solution for ca. 15 seconds at a total flow rate of 0.1 SLM followed by a 1 s delay (to allow possible remaining bubbles to collapse) before signal acquisition. To reduce foaming, 0.1% of Pluronic® L81 may be added to the sample. After bubbling, a saturation RF pulse is irradiated at the desired frequency and the signal of free Xe in solution is observed. ^129Xe Hyper-CEST MR images can be acquired using averages of a RARE sequence with a slice-selective 90° gaussian shaped excitation pulse and high RARE factor (up to 32 for a 32×32 matrix size) due to sufficiently slow T2 relaxation. Two images are acquired, one with an off-resonant saturation pulse for control and one with an on-resonant saturation pulse to induce signal loss in the vicinity of the sensor. Hyper-CEST MR images are obtained by a pixel-wise subtraction of the noise corrected off- and on-resonant images. All data analysis was performed with MATLAB®.

calmodulin [2] = target: T1, calmodulin; assay: Hyper-CEST calcium titration, binding curves of cryptophane-peptide sensors with calmodulin; conditions: from CEST binding curves; 2 μM calmodulin; free calcium 0 to 39 μM; MOPS buffer; read-out: apparent dissociation constant
Description: (A) CEST spectra from M13 with a cryptophane Cage and also harboring a fluorescein (G-K(Cr-A)-[…]-C(5-Fluo-M)-amid) where Cr-A denotes the cryptophane A cage attached on the lysine residue and 5-Fluo-M a fluorescein attached to a cysteine) in the presence of 2 μM calmodulin and in response to free calcium concentrations ranging from 0 to 39 μM (MOPS buffer) (B) CEST spectra from RS20 (GRR-K(Cr-A)-WQKTGHAVRAIGRLSSS-C(5-Fluo-M)-amid; same annotation of modifications as in (A)) plotted analogously as in (A). (C) Corresponding binding curves yielding an apparent dissociation constant of 0.91 μM and 1 μM for M13 and RS20 respectively.
as §1
Experiments benefit from high field MRI scanners because of the increased spectral resolution for resolving the CEST response. As an example, a 9.4 T NMR spectrometer can be used for the NMR experiments. […]

[3] = system: lysates obtained from HEK293 cells; assay: Functionality of the sensor in cell lysates (FIG. 13); format: biochemical; conditions: for sensor response on addition of saturating calcium: HEK293 lysate with CaM, saturating amounts of calcium; for sensor response on addition of just CaM: HEK293 lysate, calcium already present in the lysate
Description: FIG. 13: Functionality of the sensor in cell lysates. The sensor M13-based sensor (blue) and RS20-based sensor (red) were added to lysates obtained from HEK293 cells.

[4] = Circular dichroism and CEST spectra at different trifluoroethanol (TFE) concentrations (FIG. 12); format: physicochemical; conditions: for CEST signal in TFE: 20% and 50% TFE; for CEST signal in TFE / CEST signal in water: without Ca2+ or CaM; for helicity of the peptide moiety (CD spectra): different concentrations of TFE
Excerpt: FIG. 12: Spectroscopic changes upon conformational change.

HEK293 cells = assay: Cellular uptake of cage-conjugated peptides, confocal microscopy and FACS (FIG. 8); format: cell-based; conditions: 25 μM, 20 minutes
Description: (A) Cage-conjugated peptides that were also labeled with fluorescein (25 μM) were incubated on HEK293 cells for 20 minutes followed by confocal microscopy imaging (nuclear counterstain with DAPI). (B) Analysis of FACS experiments with cells incubated with different peptides modified with cryptophane cages and fluorescein indicating labeling of the cells with the fluorescent peptides (sequences as indicated in FIG. 2; @K# indicates the lysine residue number used for conjugation of the cryptophane cage). […] The cellular uptake of similar EF-protein-binding peptides is likely due to their high scores on prediction tools for cell-penetration such as CPPpred or CellPPD.

Row | CEST suppression (baseline, absence of calcium) (calmodulin [1]) | Kd (calmodulin [2]) [nM] | Ca2+-dependent CEST unsuppression / signal change on calmodulin binding (calmodulin [1]; listed as @K3) | Ca2+-dependent CEST unsuppression / signal change on calmodulin binding (calmodulin [1]; listed as RS20-cage@K2) | CEST suppression (baseline, absence of calcium) (calmodulin [1]; listed as @K3) | CEST suppression (baseline, absence of calcium) (calmodulin [1]; listed as RS20-cage@K2) | Substance | Ca2+-dependent CEST unsuppression / signal change on calmodulin binding (calmodulin [1]; listed as cage-conjugated calcineurin) | sensor response on addition of saturating calcium [3] | sensor response on addition of just CaM [3] | CEST signal in TFE [4] | helicity of the peptide moiety (CD spectra) [4] | CEST signal in water [4] | Ca2+-dependent CEST unsuppression / signal change on calmodulin binding (calmodulin [1]) | cellular uptake (confocal microscopy) (HEK293 cells)
1 | neither show a suppression | – | – | – | – | – | ARKEVIRNKIRAIGK-CrytophaneCage-MARVFSVLR [calcineurin A peptide] | does not exhibit a change in the CEST effect | – | – | – | – | – | – | –
2 | – | 910 | – | – | – | – | G-K(Cr-A)-RRWKKNFIAVSAANRFKKISSSGAL-C(5-Fluo-M)-amid (GKRRWKKNFIAVSAANRFKKISSSGALC; cryptophane A on Lys; fluorescein on Cys; amide; Cr-A@K1_M13_Fluorescein) | – | stronger response | turned on the sensor | turned on | increase of the helicity | no CEST signal | – | –
3 | complete CEST suppression | 1000 | – | – | – | – | GRR-K(Cr-A)-WQKTGHAVRAIGRLSSS-C(5-Fluo-M)-amid (GRRK(Cr‑A)WQKTGHAVRAIGRLSSSC(5‑Fluo‑M)-NH2) [Cr-A@K1_RS20_Fluorescein] | – | stronger response | turned on the sensor | turned on | increase of the helicity | no CEST signal | strong, Ca^2+-dependent CEST unsuppression | uptake
4 | – | – | weaker | diminishes | weaker | diminishes the CEST suppression | GRRKWQK(Cr-A)-TGHAVRAIGRLSSS-C(5-Fluo-M)-amid (GRRKWQK(Cr‑A)TGHAVRAIGRLSSSC(5‑Fluo‑M)-NH2) [Cr-A@K3_RS20_Fluorescein, RS20 peptide with cryptophane A shifted three amino acids toward the center, C-terminal fluorescein] | – | – | – | – | – | – | – | –
